One block for each substance: values may come before it.
What was measured:
[1] = target: cation-independent mannose-6-phosphate/IGF-II receptor on GM4668 human skin fibroblasts (human) (UniProt P11717); assay: cell-based or functional assay
[2] = target: cation-independent mannose-6-phosphate/IGF-II receptor on GM4668 human skin fibroblasts (human) (UniProt P11717)
[3] = target: cation-independent mannose-6-phosphate/IGF-II receptor on GM4668 human skin fibroblasts (human) (UniProt P11717); remark: listed apart in the source

UniProt P11717, sequence (P11717 41-2491): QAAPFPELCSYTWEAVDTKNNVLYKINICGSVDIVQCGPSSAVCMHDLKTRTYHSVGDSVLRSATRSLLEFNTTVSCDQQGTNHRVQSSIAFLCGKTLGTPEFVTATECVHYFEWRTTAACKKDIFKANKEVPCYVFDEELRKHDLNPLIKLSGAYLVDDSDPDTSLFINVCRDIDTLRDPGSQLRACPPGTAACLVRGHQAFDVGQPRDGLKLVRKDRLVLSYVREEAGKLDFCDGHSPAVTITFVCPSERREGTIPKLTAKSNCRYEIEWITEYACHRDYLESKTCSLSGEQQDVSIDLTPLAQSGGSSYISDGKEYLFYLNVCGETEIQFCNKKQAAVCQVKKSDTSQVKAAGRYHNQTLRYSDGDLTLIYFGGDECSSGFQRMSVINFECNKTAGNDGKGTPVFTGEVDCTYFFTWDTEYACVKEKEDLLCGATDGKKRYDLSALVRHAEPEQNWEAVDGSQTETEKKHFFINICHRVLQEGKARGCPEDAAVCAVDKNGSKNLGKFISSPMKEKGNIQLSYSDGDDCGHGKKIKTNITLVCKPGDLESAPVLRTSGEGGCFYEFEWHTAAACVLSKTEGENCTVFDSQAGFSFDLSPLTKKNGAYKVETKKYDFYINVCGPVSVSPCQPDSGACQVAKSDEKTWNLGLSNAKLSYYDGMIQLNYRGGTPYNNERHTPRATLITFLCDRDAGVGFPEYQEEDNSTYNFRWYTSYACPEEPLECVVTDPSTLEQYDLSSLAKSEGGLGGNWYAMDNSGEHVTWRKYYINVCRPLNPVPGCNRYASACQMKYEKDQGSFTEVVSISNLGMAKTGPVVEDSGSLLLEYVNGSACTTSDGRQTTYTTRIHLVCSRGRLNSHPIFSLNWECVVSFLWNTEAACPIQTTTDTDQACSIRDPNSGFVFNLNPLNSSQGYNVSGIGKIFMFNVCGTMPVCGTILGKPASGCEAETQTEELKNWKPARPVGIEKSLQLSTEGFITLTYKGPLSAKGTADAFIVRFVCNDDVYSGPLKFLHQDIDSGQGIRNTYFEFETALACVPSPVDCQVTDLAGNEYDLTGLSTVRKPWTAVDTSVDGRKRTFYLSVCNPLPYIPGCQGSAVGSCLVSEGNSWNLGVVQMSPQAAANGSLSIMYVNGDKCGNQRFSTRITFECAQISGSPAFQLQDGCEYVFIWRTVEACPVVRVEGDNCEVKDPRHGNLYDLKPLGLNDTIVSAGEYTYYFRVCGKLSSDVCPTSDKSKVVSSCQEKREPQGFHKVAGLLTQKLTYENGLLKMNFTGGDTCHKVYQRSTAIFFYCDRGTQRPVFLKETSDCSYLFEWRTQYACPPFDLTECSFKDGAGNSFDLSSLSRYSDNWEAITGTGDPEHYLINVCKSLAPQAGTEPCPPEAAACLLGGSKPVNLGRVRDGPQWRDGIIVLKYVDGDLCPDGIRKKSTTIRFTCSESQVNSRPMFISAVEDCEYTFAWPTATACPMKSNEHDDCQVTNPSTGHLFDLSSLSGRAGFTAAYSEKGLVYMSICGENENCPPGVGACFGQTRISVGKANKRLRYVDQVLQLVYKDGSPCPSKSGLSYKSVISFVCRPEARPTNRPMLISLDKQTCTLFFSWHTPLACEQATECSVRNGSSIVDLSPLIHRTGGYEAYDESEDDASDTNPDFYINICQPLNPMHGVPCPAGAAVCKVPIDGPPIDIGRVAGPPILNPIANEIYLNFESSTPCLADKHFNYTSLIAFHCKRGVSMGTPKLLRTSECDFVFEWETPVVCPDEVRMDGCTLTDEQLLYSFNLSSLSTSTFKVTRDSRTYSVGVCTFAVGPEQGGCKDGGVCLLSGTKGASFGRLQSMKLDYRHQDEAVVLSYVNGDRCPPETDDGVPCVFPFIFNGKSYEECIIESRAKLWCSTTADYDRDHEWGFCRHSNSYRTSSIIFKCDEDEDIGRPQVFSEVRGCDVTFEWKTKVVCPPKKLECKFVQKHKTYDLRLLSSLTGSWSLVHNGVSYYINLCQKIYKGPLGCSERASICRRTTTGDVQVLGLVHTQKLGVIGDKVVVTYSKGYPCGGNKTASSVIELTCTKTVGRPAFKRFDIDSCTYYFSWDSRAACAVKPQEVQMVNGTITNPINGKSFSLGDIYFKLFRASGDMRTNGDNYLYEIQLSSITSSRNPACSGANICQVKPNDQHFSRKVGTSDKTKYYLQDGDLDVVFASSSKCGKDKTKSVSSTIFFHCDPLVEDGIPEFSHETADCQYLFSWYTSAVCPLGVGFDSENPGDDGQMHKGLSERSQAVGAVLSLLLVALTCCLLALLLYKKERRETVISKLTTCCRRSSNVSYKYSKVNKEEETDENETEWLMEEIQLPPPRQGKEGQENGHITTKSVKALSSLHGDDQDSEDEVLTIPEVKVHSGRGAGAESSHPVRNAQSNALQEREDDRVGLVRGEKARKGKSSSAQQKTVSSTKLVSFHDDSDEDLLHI

% IGF-II +M6P inhibition of uptake [1]: 100% | +IGF-II (units/mg): uptake with IGF-II, 22.5 hours [1]: 473 units/mg | +IGF-II (units/mg): uptake with excess IGF-II, 18 hours [1]: 258 units/mg | +IGF-II +M6P (units/mg): uptake with both inhibitors, 22.5 hours [1]: 0 units/mg | +IGF-II Uptake (units/mg), 21 hours [1]: 1010 units/mg | +M6P (units/mg): uptake with 8 mM M6P, 22.5 hours [1]: 639 units/mg | +M6P (units/mg): uptake with excess M6P, 18 hours [1]: 412 units/mg | Uptake (units/mg), GM4668 fibroblasts, 18 hours [1]: 704 units/mg | Uptake (units/mg), MPS VII fibroblasts, 21 hours [1]: 4080 units/mg | Uptake (units/mg), fibroblasts, 22.5 hours [1]: 1580 units/mg
Substance: CHO GUSΔC18-GILTΔ1-7 (from UniProt P08236 23-633)

cell-associated GUS activity in GM4668 fibroblast lysate after about 18 h uptake, 150 U enzyme per well (untagged comparison) [2]: 4.5 U/mg lysate | cell-associated GUS activity in GM4668 fibroblast lysate after uptake of about 350-600 units of ConA-purified enzyme (untagged comparison) (Units/mg protein) [3]: 3.38
Substance: GUS (enzyme)

Uptake (units/mg), MPS VII fibroblasts, 21 hours [1]: 1510 units/mg
Substance: HEK GUS-GILTY27L (from UniProt P08236 23-651)

cell-associated GUS activity in GM4668 fibroblast lysate after about 18 h uptake, 150 U enzyme per well, no competitor [2]: 24.1 U/mg lysate | cell-associated GILT-GUS in GM4668 fibroblasts, no IGF-II (units/mg lysate) [1]: > 24 | cell-associated GILT-GUS in GM4668 fibroblasts, with excess IGF-II [1]: 5.4 U | cell-associated GUS activity in GM4668 fibroblasts, fold over unmodified GUS [1]: 10 fold | cell-associated GUS activity in GM4668 fibroblast lysate after uptake of about 350-600 units of ConA-purified enzyme in the presence of excess IGF-II as competitor (Units/mg protein) [3]: 7.93 | cell-associated GUS activity in GM4668 fibroblast lysate after uptake of about 350-600 units of ConA-purified enzyme, no competitor (Units/mg protein) [3]: 55.1
Substance: GUS-IGF-II fusion protein (GUS-GILT), Leishmania-expressed

+IGF-II Uptake (units/mg), 21 hours [1]: 1210 units/mg | Uptake (units/mg), MPS VII fibroblasts, 21 hours [1]: 5190 units/mg
Substance: HEK GUSΔC18-GILTΔ1-7 (from UniProt P08236 23-633)

cell-associated GUS activity in GM4668 fibroblast lysate after uptake of about 350-600 units of ConA-purified enzyme in the presence of excess IGF-II as competitor (Units/mg protein) [3]: 13.5 | cell-associated GUS activity in GM4668 fibroblast lysate after uptake of about 350-600 units of ConA-purified enzyme, no competitor (Units/mg protein) [3]: 245
Substance: GUS-GILTΔ1-7 (from UniProt P08236)

+IGF-II (units/mg): uptake with excess IGF-II, 18 hours [1]: 84 units/mg | +M6P (units/mg): uptake with excess M6P, 18 hours [1]: 223 units/mg | Uptake (units/mg), GM4668 fibroblasts, 18 hours [1]: 310 units/mg
Substance: CHO GUS-GILTΔ1-7 (from UniProt P08236 23-651)

Continued, substance first:

Substance: HEK GUS-GILT (from UniProt P08236 23-651)
Uptake (units/mg), MPS VII fibroblasts, 21 hours [1]: 1430 units/mg

Substance: GILT-GUS with Δ1-7 and Y27L mutations in the IGF-II portion, Leishmania-expressed (from UniProt P08236 23-651)
cell-associated GUS activity in GM4668 fibroblasts, fold over unmodified GUS [1]: 5 fold

Substance: HEK GUS-GILTF19S (from UniProt P08236 23-651)
% IGF-II +M6P inhibition of uptake [1]: 99.1% | +IGF-II (units/mg): uptake with IGF-II, 22.5 hours [1]: 217 units/mg | +IGF-II +M6P (units/mg): uptake with both inhibitors, 22.5 hours [1]: 15 units/mg | +IGF-II Uptake (units/mg), 21 hours [1]: 439 units/mg | +M6P (units/mg): uptake with 8 mM M6P, 22.5 hours [1]: 952 units/mg | Uptake (units/mg), MPS VII fibroblasts, 21 hours [1]: 4730 units/mg | Uptake (units/mg), fibroblasts, 22.5 hours [1]: 1590 units/mg

Substance: CHO GUS (from UniProt P08236 23-651) (enzyme)
+IGF-II (units/mg): uptake with excess IGF-II, 18 hours [1]: 336 units/mg | +M6P (units/mg): uptake with excess M6P, 18 hours [1]: 1 units/mg | Uptake (units/mg), GM4668 fibroblasts, 18 hours [1]: 352 units/mg

Substance: HEK GUS-GILTF19SE12K (from UniProt P08236 23-651)
% IGF-II +M6P inhibition of uptake [1]: 100% | +IGF-II (units/mg): uptake with IGF-II, 22.5 hours [1]: 22 units/mg | +IGF-II +M6P (units/mg): uptake with both inhibitors, 22.5 hours [1]: 0 units/mg | +IGF-II Uptake (units/mg), 21 hours [1]: 388 units/mg | +M6P (units/mg): uptake with 8 mM M6P, 22.5 hours [1]: 846 units/mg | Uptake (units/mg), MPS VII fibroblasts, 21 hours [1]: 4230 units/mg | Uptake (units/mg), fibroblasts, 22.5 hours [1]: 1230 units/mg
